Measurements published in patent US20140087995A1 (published 2014).
Numbered stars: 1 amine (or outer) side, 2 acyl side, 3 side chain; on linkers, the order of the positions; unused ones are H or OH. Bridge positions count the residues as written; N and C are the ends. Side chains are listed from the residue outwards. Ends that are not written are not given here. * marks the point of attachment. C20 diacid = O=C(O)CCCCCCCCCCCCCCCCCCC(=O)*; γGlu = O=C(O)[C@H](CCC(=O)[*:2])N[*:1]

T1: human calcitonin receptor (human, UniProt P30988 25-474)
T1 construct: whole, on cells; Used as membranes prepared from the transfected cells; also called hCTR; hCT
T1 sequence (looked up): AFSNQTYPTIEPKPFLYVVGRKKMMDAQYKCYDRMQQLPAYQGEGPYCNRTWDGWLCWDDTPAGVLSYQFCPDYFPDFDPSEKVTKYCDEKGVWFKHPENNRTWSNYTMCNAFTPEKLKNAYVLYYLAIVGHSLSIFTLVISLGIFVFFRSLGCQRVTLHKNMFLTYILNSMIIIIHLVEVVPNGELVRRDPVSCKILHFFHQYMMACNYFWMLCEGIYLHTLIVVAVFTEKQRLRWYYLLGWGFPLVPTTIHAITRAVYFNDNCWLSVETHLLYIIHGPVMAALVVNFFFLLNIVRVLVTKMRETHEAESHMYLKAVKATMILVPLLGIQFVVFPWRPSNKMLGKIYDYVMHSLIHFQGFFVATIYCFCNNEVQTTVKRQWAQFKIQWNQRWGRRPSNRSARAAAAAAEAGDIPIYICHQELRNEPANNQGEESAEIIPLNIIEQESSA

T2: rat calcitonin receptor (rat, UniProt P32214 25-516)
T2 construct: whole, on cells; Used as membranes prepared from the transfected cells; also called rCTR; rCT
T2 sequence (looked up): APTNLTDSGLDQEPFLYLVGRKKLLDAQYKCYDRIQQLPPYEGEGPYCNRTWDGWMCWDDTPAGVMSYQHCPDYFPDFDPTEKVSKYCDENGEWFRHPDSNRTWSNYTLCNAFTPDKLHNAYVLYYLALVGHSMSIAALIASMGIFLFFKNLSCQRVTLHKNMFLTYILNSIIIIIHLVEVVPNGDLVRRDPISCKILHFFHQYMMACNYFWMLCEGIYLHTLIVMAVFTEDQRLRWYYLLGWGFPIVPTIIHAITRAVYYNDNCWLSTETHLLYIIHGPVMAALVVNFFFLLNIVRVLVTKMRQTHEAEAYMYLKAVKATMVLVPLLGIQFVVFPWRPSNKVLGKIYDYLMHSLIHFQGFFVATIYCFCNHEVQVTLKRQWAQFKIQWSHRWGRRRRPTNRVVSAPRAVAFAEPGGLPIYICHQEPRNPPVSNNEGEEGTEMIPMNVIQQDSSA

B1: N^ε1-[(4S)-4-carboxy-4-(19-carboxynonadecanoylamino)butanoyl]-[His14,Arg17,Pro21,Pro27,His34]-h-amylin (peptide)
peptide: K([γGlu-C20 diacid])CNTATCATQRLAHFLRHSSPNFGAIPSSTNVGHNTY-NH2
modifications: disulfide 2-7; N-terminus assumed
SMILES: CC[C@H](C)[C@H](NC(=O)[C@H](C)NC(=O)CNC(=O)[C@H](Cc1ccccc1)NC(=O)[C@H](CC(N)=O)NC(=O)[C@@H]1CCCN1C(=O)[C@H](CO)NC(=O)[C@H](CO)NC(=O)[C@H](Cc1c[nH]cn1)NC(=O)[C@H](CCCNC(=N)N)NC(=O)[C@H](CC(C)C)NC(=O)[C@H](Cc1ccccc1)NC(=O)[C@H](Cc1c[nH]cn1)NC(=O)[C@H](C)NC(=O)[C@H](CC(C)C)NC(=O)[C@H](CCCNC(=N)N)NC(=O)[C@H](CCC(N)=O)NC(=O)[C@@H](NC(=O)[C@H](C)NC(=O)[C@@H]1CSSC[C@H](NC(=O)[C@@H](N)CCCCNC(=O)CC[C@H](NC(=O)CCCCCCCCCCCCCCCCCCC(=O)O)C(=O)O)C(=O)N[C@@H](CC(N)=O)C(=O)N[C@@H]([C@@H](C)O)C(=O)N[C@@H](C)C(=O)N[C@@H]([C@@H](C)O)C(=O)N1)[C@@H](C)O)C(=O)N1CCC[C@H]1C(=O)N[C@@H](CO)C(=O)N[C@@H](CO)C(=O)N[C@H](C(=O)N[C@@H](CC(N)=O)C(=O)N[C@H](C(=O)NCC(=O)N[C@@H](Cc1c[nH]cn1)C(=O)N[C@@H](CC(N)=O)C(=O)N[C@H](C(=O)N[C@@H](Cc1ccc(O)cc1)C(N)=O)[C@@H](C)O)C(C)C)[C@@H](C)O
notes: Analogue of human amylin; disulfide and C-terminal amide as told for h-amylin; also called compound 81
B2: N^ε1-[(4S)-4-carboxy-4-[[(4S)-4-carboxy-4-(19-carboxynonadecanoylamino)butanoyl]amino]butanoyl]-[Glu14,Arg17,Pro21,Pro27,Arg35]-h-amylin (peptide)
peptide: K([γGlu-γGlu-C20 diacid])CNTATCATQRLAEFLRHSSPNFGAIPSSTNVGSRTY-NH2
modifications: disulfide 2-7; N-terminus assumed
SMILES: CC[C@H](C)[C@H](NC(=O)[C@H](C)NC(=O)CNC(=O)[C@H](Cc1ccccc1)NC(=O)[C@H](CC(N)=O)NC(=O)[C@@H]1CCCN1C(=O)[C@H](CO)NC(=O)[C@H](CO)NC(=O)[C@H](Cc1c[nH]cn1)NC(=O)[C@H](CCCNC(=N)N)NC(=O)[C@H](CC(C)C)NC(=O)[C@H](Cc1ccccc1)NC(=O)[C@H](CCC(=O)O)NC(=O)[C@H](C)NC(=O)[C@H](CC(C)C)NC(=O)[C@H](CCCNC(=N)N)NC(=O)[C@H](CCC(N)=O)NC(=O)[C@@H](NC(=O)[C@H](C)NC(=O)[C@@H]1CSSC[C@H](NC(=O)[C@@H](N)CCCCNC(=O)CC[C@H](NC(=O)CC[C@H](NC(=O)CCCCCCCCCCCCCCCCCCC(=O)O)C(=O)O)C(=O)O)C(=O)N[C@@H](CC(N)=O)C(=O)N[C@@H]([C@@H](C)O)C(=O)N[C@@H](C)C(=O)N[C@@H]([C@@H](C)O)C(=O)N1)[C@@H](C)O)C(=O)N1CCC[C@H]1C(=O)N[C@@H](CO)C(=O)N[C@@H](CO)C(=O)N[C@H](C(=O)N[C@@H](CC(N)=O)C(=O)N[C@H](C(=O)NCC(=O)N[C@@H](CO)C(=O)N[C@@H](CCCNC(=N)N)C(=O)N[C@H](C(=O)N[C@@H](Cc1ccc(O)cc1)C(N)=O)[C@@H](C)O)C(C)C)[C@@H](C)O
notes: Analogue of human amylin; disulfide and C-terminal amide as told for h-amylin; also called compound 89
B3: N^ε1-[(4S)-4-carboxy-4-[[(4S)-4-carboxy-4-(19-carboxynonadecanoylamino)butanoyl]amino]butanoyl]-[Arg17,Pro21,Pro27,His34]-h-amylin (peptide)
peptide: K([γGlu-γGlu-C20 diacid])CNTATCATQRLANFLRHSSPNFGAIPSSTNVGHNTY-NH2
modifications: disulfide 2-7; N-terminus assumed
SMILES: CC[C@H](C)[C@H](NC(=O)[C@H](C)NC(=O)CNC(=O)[C@H](Cc1ccccc1)NC(=O)[C@H](CC(N)=O)NC(=O)[C@@H]1CCCN1C(=O)[C@H](CO)NC(=O)[C@H](CO)NC(=O)[C@H](Cc1c[nH]cn1)NC(=O)[C@H](CCCNC(=N)N)NC(=O)[C@H](CC(C)C)NC(=O)[C@H](Cc1ccccc1)NC(=O)[C@H](CC(N)=O)NC(=O)[C@H](C)NC(=O)[C@H](CC(C)C)NC(=O)[C@H](CCCNC(=N)N)NC(=O)[C@H](CCC(N)=O)NC(=O)[C@@H](NC(=O)[C@H](C)NC(=O)[C@@H]1CSSC[C@H](NC(=O)[C@@H](N)CCCCNC(=O)CC[C@H](NC(=O)CC[C@H](NC(=O)CCCCCCCCCCCCCCCCCCC(=O)O)C(=O)O)C(=O)O)C(=O)N[C@@H](CC(N)=O)C(=O)N[C@@H]([C@@H](C)O)C(=O)N[C@@H](C)C(=O)N[C@@H]([C@@H](C)O)C(=O)N1)[C@@H](C)O)C(=O)N1CCC[C@H]1C(=O)N[C@@H](CO)C(=O)N[C@@H](CO)C(=O)N[C@H](C(=O)N[C@@H](CC(N)=O)C(=O)N[C@H](C(=O)NCC(=O)N[C@@H](Cc1c[nH]cn1)C(=O)N[C@@H](CC(N)=O)C(=O)N[C@H](C(=O)N[C@@H](Cc1ccc(O)cc1)C(N)=O)[C@@H](C)O)C(C)C)[C@@H](C)O
notes: Analogue of human amylin; disulfide and C-terminal amide as told for h-amylin; also called compound 86
B4: N^ε1-[(4S)-4-carboxy-4-(19-carboxynonadecanoylamino)butanoyl]-[His14,Arg17,Pro21,Pro27,His35]-h-amylin (peptide)
peptide: K([γGlu-C20 diacid])CNTATCATQRLAHFLRHSSPNFGAIPSSTNVGSHTY-NH2
modifications: disulfide 2-7; N-terminus assumed
SMILES: CC[C@H](C)[C@H](NC(=O)[C@H](C)NC(=O)CNC(=O)[C@H](Cc1ccccc1)NC(=O)[C@H](CC(N)=O)NC(=O)[C@@H]1CCCN1C(=O)[C@H](CO)NC(=O)[C@H](CO)NC(=O)[C@H](Cc1c[nH]cn1)NC(=O)[C@H](CCCNC(=N)N)NC(=O)[C@H](CC(C)C)NC(=O)[C@H](Cc1ccccc1)NC(=O)[C@H](Cc1c[nH]cn1)NC(=O)[C@H](C)NC(=O)[C@H](CC(C)C)NC(=O)[C@H](CCCNC(=N)N)NC(=O)[C@H](CCC(N)=O)NC(=O)[C@@H](NC(=O)[C@H](C)NC(=O)[C@@H]1CSSC[C@H](NC(=O)[C@@H](N)CCCCNC(=O)CC[C@H](NC(=O)CCCCCCCCCCCCCCCCCCC(=O)O)C(=O)O)C(=O)N[C@@H](CC(N)=O)C(=O)N[C@@H]([C@@H](C)O)C(=O)N[C@@H](C)C(=O)N[C@@H]([C@@H](C)O)C(=O)N1)[C@@H](C)O)C(=O)N1CCC[C@H]1C(=O)N[C@@H](CO)C(=O)N[C@@H](CO)C(=O)N[C@H](C(=O)N[C@@H](CC(N)=O)C(=O)N[C@H](C(=O)NCC(=O)N[C@@H](CO)C(=O)N[C@@H](Cc1c[nH]cn1)C(=O)N[C@H](C(=O)N[C@@H](Cc1ccc(O)cc1)C(N)=O)[C@@H](C)O)C(C)C)[C@@H](C)O
notes: Analogue of human amylin; disulfide and C-terminal amide as told for h-amylin; also called compound 66
B5: N^ε1-[(4S)-4-carboxy-4-[[(4S)-4-carboxy-4-(19-carboxynonadecanoylamino)butanoyl]amino]butanoyl]-[Glu14,Arg17,Pro21,Pro27,Arg34]-h-amylin (peptide)
peptide: K([γGlu-γGlu-C20 diacid])CNTATCATQRLAEFLRHSSPNFGAIPSSTNVGRNTY-NH2
modifications: disulfide 2-7; N-terminus assumed
SMILES: CC[C@H](C)[C@H](NC(=O)[C@H](C)NC(=O)CNC(=O)[C@H](Cc1ccccc1)NC(=O)[C@H](CC(N)=O)NC(=O)[C@@H]1CCCN1C(=O)[C@H](CO)NC(=O)[C@H](CO)NC(=O)[C@H](Cc1c[nH]cn1)NC(=O)[C@H](CCCNC(=N)N)NC(=O)[C@H](CC(C)C)NC(=O)[C@H](Cc1ccccc1)NC(=O)[C@H](CCC(=O)O)NC(=O)[C@H](C)NC(=O)[C@H](CC(C)C)NC(=O)[C@H](CCCNC(=N)N)NC(=O)[C@H](CCC(N)=O)NC(=O)[C@@H](NC(=O)[C@H](C)NC(=O)[C@@H]1CSSC[C@H](NC(=O)[C@@H](N)CCCCNC(=O)CC[C@H](NC(=O)CC[C@H](NC(=O)CCCCCCCCCCCCCCCCCCC(=O)O)C(=O)O)C(=O)O)C(=O)N[C@@H](CC(N)=O)C(=O)N[C@@H]([C@@H](C)O)C(=O)N[C@@H](C)C(=O)N[C@@H]([C@@H](C)O)C(=O)N1)[C@@H](C)O)C(=O)N1CCC[C@H]1C(=O)N[C@@H](CO)C(=O)N[C@@H](CO)C(=O)N[C@H](C(=O)N[C@@H](CC(N)=O)C(=O)N[C@H](C(=O)NCC(=O)N[C@@H](CCCNC(=N)N)C(=O)N[C@@H](CC(N)=O)C(=O)N[C@H](C(=O)N[C@@H](Cc1ccc(O)cc1)C(N)=O)[C@@H](C)O)C(C)C)[C@@H](C)O
notes: Analogue of human amylin; disulfide and C-terminal amide as told for h-amylin; also called compound 88

target: T1, human calcitonin receptor; test: ratio of binding IC50 at human calcitonin receptor to IC50 at human amylin receptor (reference)
Summary of the method: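 Membranes (35 ng/μL final) + SPA beads, 50 mM Hepes pH 7.4 buffer with 1 mM CaCl2, 5 mM MgCl₂, 0.1% OA, 0.02% Tween20; 120 min, 25° C, shaking; centrifuged, counted; IC₅₀ by one-site binding competition.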

Ratio hCT/hAmylin binding	Binder
87.2	B1
28	B2
159	B3
45.5	B4
46.5	B5

target: T2, rat calcitonin receptor; test: ratio of binding IC50 at rat calcitonin receptor to IC50 at rat amylin receptor (reference)

Ratio rCT/rAmylin binding	Binder
42.9	B1
48.8	B2
126	B3
35.8	B4
84.9	B5

target: T2, rat calcitonin receptor; test: SPA competition with 125I-calcitonin, membranes with rat calcitonin receptor (Assay VIII)

IC50 [nM]	Binder
61.1	B1
115	B2
352	B3
20.8	B4
196	B5
